Assay results as given in paper PMC2871789.

Assays:
Assay in all cases: EMSA
[1] = biological target: T1, RelB (Mycobacterium tuberculosis H37Rv) (UniProt O50462)
T1 sequence: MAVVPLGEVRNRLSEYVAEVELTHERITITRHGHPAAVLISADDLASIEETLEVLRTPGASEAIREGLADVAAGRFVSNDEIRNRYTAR

[2] = biological target: T2, RelB;RelE (Mycobacterium tuberculosis H37Rv;Mycobacterium tuberculosis H37Rv) (UniProt O50462+O50461)
T2 sequence 1: T1 sequence
T2 sequence 2: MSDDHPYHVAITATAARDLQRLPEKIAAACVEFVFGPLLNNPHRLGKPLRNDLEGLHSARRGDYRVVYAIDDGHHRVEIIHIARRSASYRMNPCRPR

[3] = biological target: T3, RelB;RelG (Mycobacterium tuberculosis H37Rv;Mycobacterium tuberculosis H37Rv) (UniProt O50462+O33348)
T3 sequence 1: T1 sequence
T3 sequence 2: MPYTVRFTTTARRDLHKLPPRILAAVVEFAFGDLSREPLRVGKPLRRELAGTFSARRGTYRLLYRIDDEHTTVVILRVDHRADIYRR

[4] = biological target: RelB;RelK (Mycobacterium tuberculosis H37Rv;Mycobacterium tuberculosis H37Rv) (UniProt O50462+P9WF09)
RelB;RelK (Mycobacterium tuberculosis H37Rv;Mycobacterium tuberculosis H37Rv), sequence (P9WF09 whole entry, one chain of several): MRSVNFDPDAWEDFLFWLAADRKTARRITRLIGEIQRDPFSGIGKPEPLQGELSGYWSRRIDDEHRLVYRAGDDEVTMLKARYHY

[5] = biological target: T4, RelE (Mycobacterium tuberculosis H37Rv) (UniProt O50461)
T4 sequence: T2 sequence 2

[6] = biological target: RelK (Mycobacterium tuberculosis H37Rv) (UniProt P9WF09)
RelK (Mycobacterium tuberculosis H37Rv), sequence (P9WF09 whole entry): as the sequence (P9WF09 whole entry, one chain of several) above

[7] = biological target: T5, RelF;RelE (Mycobacterium tuberculosis H37Rv;Mycobacterium tuberculosis H37Rv) (UniProt O33347+O50461)
T5 sequence 1: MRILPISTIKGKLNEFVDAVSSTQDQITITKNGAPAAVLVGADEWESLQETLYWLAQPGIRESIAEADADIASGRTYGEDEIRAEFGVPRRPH
T5 sequence 2: T2 sequence 2

[8] = biological target: T6, RelF;RelG (Mycobacterium tuberculosis H37Rv;Mycobacterium tuberculosis H37Rv) (UniProt O33347+O33348)
T6 sequence 1: T5 sequence 1
T6 sequence 2: T3 sequence 2

Sequence: ACCGTCTAGATGACAAGTTGGCCGGGATCAAGCGAATCTCGCGCCGGGCGATGTCAGCCCCGTCGTCAGGCTCGTCGAAGGTGCACGCCGTCGAACAGCAGGAGATCCTCGACGAGGCGTTCGGCTGAGTTCGCTCAGCCGAACGCTCGAGGAGACATCAAACAGCGACGAGGCGTTCGGCTCGGTAAGCCGATGCTCGGCGTACAGGGTTTAGCCATACTTTTAGCTACAATCGCGGTTATGGCTGTTGTCCCACTGGGTATA (double strand) [1247p]
- binding [1]: no binding
- binding [2]: binds
- binding [3]: binds
- binding [4]: binds
- binding [5]: no binding
- binding [6]: no binding

Sequence: ATCTTCTAGAACACACCGAGACCGAACCGTTACGCCGAGACTAGGTCGCGAATGGAACACCACCGCGAAAATCGTGGCCAGAAATCGCAACCACGTTACGCTCGCGACCGCTCAATCGAGCAAGGCGCCGACCGCAAGCACCAGCAAACCTGAGACGCCGCGCACAAAGTGCGAAACCACTGGAAGGTGAGCCCTAATTTAGGGCTGAGCAGGACCTGTATAACGGCCTAGTATGGCGGTATGCGGATACTGCCGATTTCTATA (double strand) [2865p]
- binding [7]: binds
- binding [8]: binds

Sequence: GGCGTTCGGCTCGGTAAGCCGATGCTCGGCGTACAGGGTTTAGCCATACTTTTAGCTACAATCGCGGTTATGGCTGTTGTCCCACTGGGTATA (double strand) [1247p3]
- binding [2]: binds

Sequence: TCCGAACGCCTCGTCGCTGTTTGATGTCTCCTCGAGCGTTCGGCTGAGCGAACTCAGCCGAACGCCTCGTCGAGGATCTCCTGCTGTTCGACGGCGTGCACCTTCGACGAGCCTGACGACGGGGCTGACATCGCCCGGCGCGAGATTCGCTTGATCCCGGCCAACTTGTCATCTAGACGGT (double strand) [1247p5]
- binding [2]: no binding
